Biological target: PCSK9-V5 (Homo sapiens, UniProt Q8NBP7)
Experiment: Far Western blot with PCSK9-V5 conditioned media
Type: binding
Design: made in house; host or cells: CHO-K1 cells (conditioned medium, not purified)
Conditions: lysates of cells overexpressing the construct
Description: Lysates (20 to 30 μg protein), media or purified AnxA2-(His)6 were heated in reducing or non-reducing Laemmli sample buffer, resolved by SDS-PAGE on 8% glycine gels and electro-transferred onto nitrocellulose membranes (GE Healthcare). Following 1 h incubation in 5% skim milk in Tris-Buffered Saline-0.1% Tween (TBST), membranes where incubated with conditioned media of CHO-K1 cells overexpressing either an empty vector (pIRES-V5), PC5A-V5, CHRD-V5, pIRES-D374Y, PCSK9-V5 or its V5-tagged mutants, or incubated with purified AnxA2-(His)6 for 3 h at room temperature. […] For competition experiments, 10 μg of His-tagged PCSK9 or CHRD were added to the PCSK9-V5 media before Far Western blotting. For PCSK9 binding requirements with the ˜33 kDa protein, 1M NaCl, 10 mg/ml heparin, 1M NaCl+10 mg/ml heparin, or 100 mM EDTA were added to the PCSK9-V5 conditioned media used for Far Western blotting.
Wild type human Annexin A2 (AnxA2) (ATCC #MGC-2257) and Annexin A1 (AnxA1) (ATCC #MGC-5095) were purchased from ATCC and subcloned into NheI/SacI digested pIRES2-EGFP vector. An HA epitope ([…]) was fused by PCR mutagenesis at the C-terminus of both AnxA1 and AnxA2. Two-steps PCRs were performed on AnxA2 cDNA to introduce point mutations (N62Q; S64A; K28S+D34N+E36S; R37S+E43H+K47M; 77RRTKK (SEQ ID NO: 26)>AATAK (SEQ ID NO: 27); ^77RRTKK (SEQ ID NO: 26)>AATAA (SEQ ID NO: 28); ^77RRTKKELASALK (SEQ ID NO: 29)>^77AATAAELASALA (SEQ ID NO: 30); 80KKELA (SEQ ID NO: 31)>GKPLD (SEQ ID NO: 32)), or amino acid (aa) deletions (Δ2-24, aa 2-24; ΔR1, aa 37-108; ΔR2, aa 109-192; ΔR3, aa 193-268; ΔR4, aa 269-339; Δ25-36, aa 25-36; Δ37-48, aa 37-48; Δ49-61, aa 49-61; Δ62-75, aa 62-75; Δ37-66, aa 37-66; Δ74-88, aa 74-88; Δ82-88, aa 82-88; Δ89-101, aa 89-101; Δ102-108, aa 102-108) into pIRES2-AnxA2-EGFP vector (see Table 3 above). In addition, using PCR, the AnxA2 segment aa 49-75 was swapped with the corresponding AnxA1 segment aa 58-84 [AnxA1 (aa 58-84)>AnxA2 (aa 49-75)]. Similar swaps were performed for the corresponding AnxA2 sequence with AnxA1 (AnxA1>AnxA2: aa 25-27; aa 28-30; aa 31-33; aa 34-36; aa 37-39; aa 40-42; aa 43-45; aa 46-48; aa 49-75; aa 49-61; aa 62-75). All final cDNA constructs were verified by DNA sequencing.

Chain of PCSK9-V5 (Q8NBP7 153-692): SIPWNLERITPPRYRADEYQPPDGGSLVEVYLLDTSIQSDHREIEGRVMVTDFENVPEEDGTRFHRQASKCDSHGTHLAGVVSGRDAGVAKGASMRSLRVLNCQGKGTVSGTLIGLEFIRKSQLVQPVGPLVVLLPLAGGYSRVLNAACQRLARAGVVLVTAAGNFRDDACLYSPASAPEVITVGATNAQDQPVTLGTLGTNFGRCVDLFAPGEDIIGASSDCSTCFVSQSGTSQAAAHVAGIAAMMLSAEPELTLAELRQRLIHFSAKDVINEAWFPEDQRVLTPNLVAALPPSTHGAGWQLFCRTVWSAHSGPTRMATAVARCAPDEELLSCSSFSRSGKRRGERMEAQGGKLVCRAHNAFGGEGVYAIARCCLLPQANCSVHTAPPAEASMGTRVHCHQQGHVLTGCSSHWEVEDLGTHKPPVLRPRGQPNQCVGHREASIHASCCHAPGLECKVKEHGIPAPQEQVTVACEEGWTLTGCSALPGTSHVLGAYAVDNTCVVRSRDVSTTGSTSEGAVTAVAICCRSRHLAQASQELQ
Chain of PCSK9-V5 (Q8NBP7 31-152 partner limits assumed): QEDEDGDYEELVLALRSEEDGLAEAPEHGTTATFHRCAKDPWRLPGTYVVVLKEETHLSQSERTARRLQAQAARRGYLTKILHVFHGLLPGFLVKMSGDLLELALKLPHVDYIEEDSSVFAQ

| Molecule | PCSK9-V5 binding by Far Western blot |
| --- | --- |
| Δ2-24: AnxA2 deletion of aa 2-24 | does not affect binding to PCSK9 |
| Δ37-66: AnxA2 deletion of aa 37-66 (protein) MSTVHEILCKLSLEGDHSTPPSAYGSVKAYTNFDAEQRQDIAFAYQRRTKKELASALKSALSGHLETVILGLLKTPAQYDASELKASMKGLGTDEDSLIEIICSRTNQELQEINRVYKEMYKTDLEKDIISDTSGDFRKLMVALAKGRRAEDGSVIDYELIDQDARDLYDAGVKRKGTDVPKWISIMTERSVPHLQKVFDRYKSYSPYDMLESIRKEVKGDLENAFLNLVQCIQNKPLYFADRLYDSMKGKGTRDKVLIRIMVSRSEVDMLKIRSEFKRKYGKSLYYYIQQDTKGDYQKALLYLCGGDDYPYDVPDYA | abolished PCSK9 binding |
| Δ74-88: AnxA2 deletion of aa 74-88 (protein) MSTVHEILCKLSLEGDHSTPPSAYGSVKAYTNFDAERDALNIETAIKTKGVDEVTIVNILTNRSNAQRQDIAFSALSGHLETVILGLLKTPAQYDASELKASMKGLGTDEDSLIEIICSRTNQELQEINRVYKEMYKTDLEKDIISDTSGDFRKLMVALAKGRRAEDGSVIDYELIDQDARDLYDAGVKRKGTDVPKWISIMTERSVPHLQKVFDRYKSYSPYDMLESIRKEVKGDLENAFLNLVQCIQNKPLYFADRLYDSMKGKGTRDKVLIRIMVSRSEVDMLKIRSEFKRKYGKSLYYYIQQDTKGDYQKALLYLCGGDDYPYDVPDYA | abolished PCSK9 binding |
| Δ37-48: AnxA2 deletion of aa 37-48 (protein) MSTVHEILCKLSLEGDHSTPPSAYGSVKAYTNFDAEKGVDEVTIVNILTNRSNAQRQDIAFAYQRRTKKELASALKSALSGHLETVILGLLKTPAQYDASELKASMKGLGTDEDSLIEIICSRTNQELQEINRVYKEMYKTDLEKDIISDTSGDFRKLMVALAKGRRAEDGSVIDYELIDQDARDLYDAGVKRKGTDVPKWISIMTERSVPHLQKVFDRYKSYSPYDMLESIRKEVKGDLENAFLNLVQCIQNKPLYFADRLYDSMKGKGTRDKVLIRIMVSRSEVDMLKIRSEFKRKYGKSLYYYIQQDTKGDYQKALLYLCGGDDYPYDVPDYA | abolished PCSK9 binding |
| Δ49-61: AnxA2 deletion of aa 49-61 (protein) MSTVHEILCKLSLEGDHSTPPSAYGSVKAYTNFDAERDALNIETAIKTNRSNAQRQDIAFAYQRRTKKELASALKSALSGHLETVILGLLKTPAQYDASELKASMKGLGTDEDSLIEIICSRTNQELQEINRVYKEMYKTDLEKDIISDTSGDFRKLMVALAKGRRAEDGSVIDYELIDQDARDLYDAGVKRKGTDVPKWISIMTERSVPHLQKVFDRYKSYSPYDMLESIRKEVKGDLENAFLNLVQCIQNKPLYFADRLYDSMKGKGTRDKVLIRIMVSRSEVDMLKIRSEFKRKYGKSLYYYIQQDTKGDYQKALLYLCGGDDYPYDVPDYA | abolished PCSK9 binding |
| Δ82-88: AnxA2 deletion of aa 82-88 (protein) MSTVHEILCKLSLEGDHSTPPSAYGSVKAYTNFDAERDALNIETAIKTKGVDEVTIVNILTNRSNAQRQDIAFAYQRRTKKSALSGHLETVILGLLKTPAQYDASELKASMKGLGTDEDSLIEIICSRTNQELQEINRVYKEMYKTDLEKDIISDTSGDFRKLMVALAKGRRAEDGSVIDYELIDQDARDLYDAGVKRKGTDVPKWISIMTERSVPHLQKVFDRYKSYSPYDMLESIRKEVKGDLENAFLNLVQCIQNKPLYFADRLYDSMKGKGTRDKVLIRIMVSRSEVDMLKIRSEFKRKYGKSLYYYIQQDTKGDYQKALLYLCGGDDYPYDVPDYA | abolished PCSK9 binding |
| Δ62-75: AnxA2 deletion of aa 62-75 (protein) MSTVHEILCKLSLEGDHSTPPSAYGSVKAYTNFDAERDALNIETAIKTKGVDEVTIVNILTQRRTKKELASALKSALSGHLETVILGLLKTPAQYDASELKASMKGLGTDEDSLIEIICSRTNQELQEINRVYKEMYKTDLEKDIISDTSGDFRKLMVALAKGRRAEDGSVIDYELIDQDARDLYDAGVKRKGTDVPKWISIMTERSVPHLQKVFDRYKSYSPYDMLESIRKEVKGDLENAFLNLVQCIQNKPLYFADRLYDSMKGKGTRDKVLIRIMVSRSEVDMLKIRSEFKRKYGKSLYYYIQQDTKGDYQKALLYLCGGDDYPYDVPDYA | abolished PCSK9 binding |

Further lines, results first:

| PCSK9-V5 binding by Far Western blot | Molecule |
| --- | --- |
| abolished PCSK9 binding | Δ89-101: AnxA2 deletion of aa 89-101 (protein) MSTVHEILCKLSLEGDHSTPPSAYGSVKAYTNFDAERDALNIETAIKTKGVDEVTIVNILTNRSNAQRQDIAFAYQRRTKKELASALKLLKTPAQYDASELKASMKGLGTDEDSLIEIICSRTNQELQEINRVYKEMYKTDLEKDIISDTSGDFRKLMVALAKGRRAEDGSVIDYELIDQDARDLYDAGVKRKGTDVPKWISIMTERSVPHLQKVFDRYKSYSPYDMLESIRKEVKGDLENAFLNLVQCIQNKPLYFADRLYDSMKGKGTRDKVLIRIMVSRSEVDMLKIRSEFKRKYGKSLYYYIQQDTKGDYQKALLYLCGGDDYPYDVPDYA |
| had no major effect | ΔR4: AnxA2 deletion of aa 269-339 (protein) MSTVHEILCKLSLEGDHSTPPSAYGSVKAYTNFDAERDALNIETAIKTKGVDEVTIVNILTNRSNAQRQDIAFAYQRRTKKELASALKSALSGHLETVILGLLKTPAQYDASELKASMKGLGTDEDSLIEIICSRTNQELQEINRVYKEMYKTDLEKDIISDTSGDFRKLMVALAKGRRAEDGSVIDYELIDQDARDLYDAGVKRKGTDVPKWISIMTERSVPHLQKVFDRYKSYSPYDMLESIRKEVKGDLENAFLNLVQCIQNKPLYPYDVPDYA |
| had no major effect | ΔR2: AnxA2 deletion of aa 109-192 (protein) MSTVHEILCKLSLEGDHSTPPSAYGSVKAYTNFDAERDALNIETAIKTKGVDEVTIVNILTNRSNAQRQDIAFAYQRRTKKELASALKSALSGHLETVILGLLKTPAQQDARDLYDAGVKRKGTDVPKWISIMTERSVPHLQKVFDRYKSYSPYDMLESIRKEVKGDLENAFLNLVQCIQNKPLYFADRLYDSMKGKGTRDKVLIRIMVSRSEVDMLKIRSEFKRKYGKSLYYYIQQDTKGDYQKALLYLCGGDDYPYDVPDYA |
| had no major effect | ΔR3: AnxA2 deletion of aa 193-268 (protein) MSTVHEILCKLSLEGDHSTPPSAYGSVKAYTNFDAERDALNIETAIKTKGVDEVTIVNILTNRSNAQRQDIAFAYQRRTKKELASALKSALSGHLETVILGLLKTPAQYDASELKASMKGLGTDEDSLIEIICSRTNQELQEINRVYKEMYKTDLEKDIISDTSGDFRKLMVALAKGRRAEDGSVIDYELIDYFADRLYDSMKGKGTRDKVLIRIMVSRSEVDMLKIRSEFKRKYGKSLYYYIQQDTKGDYQKALLYLCGGDDYPYDVPDYA |
| completely abrogated the interaction | ΔR1: AnxA2 deletion of aa 37-108 (protein) MSTVHEILCKLSLEGDHSTPPSAYGSVKAYTNFDAEYDASELKASMKGLGTDEDSLIEIICSRTNQELQEINRVYKEMYKTDLEKDIISDTSGDFRKLMVALAKGRRAEDGSVIDYELIDQDARDLYDAGVKRKGTDVPKWISIMTERSVPHLQKVFDRYKSYSPYDMLESIRKEVKGDLENAFLNLVQCIQNKPLYFADRLYDSMKGKGTRDKVLIRIMVSRSEVDMLKIRSEFKRKYGKSLYYYIQQDTKGDYQKALLYLCGGDDYPYDVPDYA |

From patent US8673850B2, “PCSK9 inhibitors and methods of use thereof” (Institut de Recherches Cliniques de Montreal, priority 2008, dated 2014)
